Measured values published in patent US20130209454A1.
Numbering of substitutions follows the chain as printed. In names and notes the source's numbering stands.

Assays:
Test in all cases: cell-based or functional assay
[1] = target: HIV-1 Env of strain 263-8 (HIV-1)
[2] = target: HIV-1 Env of strain 235-47 (HIV-1)
[3] = target: HIV-1 Env of strain Ce1086_B2 (HIV-1)
[4] = target: HIV-1 Env of strain TRJO4551.58 (HIV-1)
[5] = target: HIV-1 Env of strain HIV-0013095-2.11 (HIV-1)
[6] = target: HIV-1 Env of strain 6540.v4.c1 (HIV-1)
[7] = target: HIV-1 Env of strain SC05_8C11_2344 (HIV-1)
[8] = target: HIV-1 Env of strain 6244_13_B5_4576 (HIV-1)
[9] = target: HIV-1 Env of strain CNE52 (HIV-1)
[10] = target: HIV-1 Env of strain MS208.A1 (HIV-1)
[11] = target: HIV-1 Env of strain A07412M1.vrc12 (HIV-1)
[12] = target: HIV-1 Env of strain 191955_A11 (HIV-1)
[13] = target: HIV-1 Env of strain 191084 B7-19 (HIV-1)
[14] = target: HIV-1 Env of strain 7030102001E5(Rev) (HIV-1)
[15] = target: HIV-1 Env of strain 6952.v1.c20 (HIV-1)
[16] = target: HIV-1 Env of strain HIV-16055-2.3 (HIV-1)
[17] = target: Env of HIV-1 strain 246F C1G (HIV-1)
[18] = target: Env of HIV-1 strain Q461.e2 (HIV-1)
[19] = target: Env of HIV-1 strain QH0692.42 (HIV-1)
[20] = target: Env of HIV-1 strain 3301.v1.c24 (HIV-1)
[21] = target: Env of HIV-1 strain Du422.1 (HIV-1)
[22] = target: Env of HIV-1 strain ZM109F.PB4 (HIV-1)
[23] = target: Env of HIV-1 strain 928-28 (HIV-1)
[24] = target: Env of HIV-1 strain T250-4 (HIV-1)
[25] = target: Env of HIV-1 strain 0815.v3.c3 (HIV-1)
[26] = target: Env of HIV-1 strain Ce704809221_1B3 (HIV-1)
[27] = target: Env of HIV-1 strain 620345.c01 (HIV-1)
[28] = target: Env of HIV-1 strain Q842.d12 (HIV-1)
[29] = target: Env of HIV-1 strain 62357_14_D3_4589 (HIV-1)
[30] = target: Env of HIV-1 strain REJO4541.67 (HIV-1)
[31] = target: Env of HIV-1 strain BJOX025000.01.1 (HIV-1)
[32] = target: Env of HIV-1 strain BJOX010000.06.2 (HIV-1)
[33] = target: Env of HIV-1 strain Ce2010_F5 (HIV-1)
[34] = target: Env of HIV-1 strain CNE30 (HIV-1)
[35] = target: Env of HIV-1 strain ZM233M.PB6 (HIV-1)
[36] = target: Env of HIV-1 strain 231966.c02 (HIV-1)
[37] = target: Env of HIV-1 strain 6952.v1.c20 (HIV-1)
[38] = target: Env of HIV-1 strain 6240_08_TA5_4622 (HIV-1)
[39] = target: Env of HIV-1 strain Q23.17 (HIV-1)
[40] = target: Env of HIV-1 strain 6535.3 (HIV-1)
[41] = target: Env of HIV-1 strain Ce0393_C3 (HIV-1)
[42] = target: Env of HIV-1 strain C4118.c09 (HIV-1)
[43] = target: Env of HIV-1 strain CNE21 (HIV-1)
[44] = target: Env of HIV-1 strain ZM247v1(Rev-) (HIV-1)
[45] = target: Env of HIV-1 strain BJOX015000.11.5 (HIV-1)
[46] = target: Env of HIV-1 strain 191955_A11 (HIV-1)
[47] = target: Env of HIV-1 strain CNE52 (HIV-1)
[48] = target: Env of HIV-1 strain 3817.v2.c59 (HIV-1)
[49] = target: Env of HIV-1 strain Q259.d2.17 (HIV-1)
[50] = target: Env of HIV-1 strain CNE58 (HIV-1)
[51] = target: Env of HIV-1 strain T257-31 (HIV-1)

B1: NIH45-46^G54W(HC), S28Y(LC) (antibody, V domains shown)
VH: QVRLSQSGGQMKKPGESMRLSCRASGYEFLNCPINWIRLAPGRRPEWMGWLKPRWGAVNYARKFQGRVTMTRDVYSDTAFLELRSLTSDDTAVYFCTRGKYCTARDYYNWDFEHWGRGAPVTVSS
VL: EIVLTQSPATLSLSPGETAIISCRTSQYGSLAWYQQRPGQAPRLVIYSGSTRAAGIPDRFSGSRWGADYNLSISNLESGDFGVYYCQQYEFFGQGTKVQVDI
**Q.** B1 was tested. Which IC50, pseudovirus neutralization [1] did it give?
**A.** 18 ng/mL

**Q.** And the IC50, pseudovirus neutralization [2]?
**A.** 1 ng/mL

**Q.** And the IC50, pseudovirus neutralization [3]?
**A.** 0.004 µg/mL

**Q.** What about the IC50, pseudovirus neutralization [4] of the same binder?
**A.** 4 ng/mL

**Q.** What about the IC50, pseudovirus neutralization [5] of the same binder?
**A.** 2 ng/mL

**Q.** What about the IC50, pseudovirus neutralization [6] of the same binder?
**A.** > 50 µg/mL

**Q.** And the IC50, pseudovirus neutralization [7]?
**A.** 0.07 µg/mL

**Q.** What about the IC50, pseudovirus neutralization [8] of the same binder?
**A.** 0.03 µg/mL

**Q.** What about the IC50, pseudovirus neutralization [9] of the same binder?
**A.** 4 ng/mL

**Q.** And the IC50, pseudovirus neutralization [10]?
**A.** 0.022 µg/mL

**Q.** And the IC50, pseudovirus neutralization [11]?
**A.** 1 ng/mL

**Q.** What about the IC50, pseudovirus neutralization [12] of the same binder?
**A.** 0.013 µg/mL

**Q.** And the IC50, pseudovirus neutralization [13]?
**A.** 1 ng/mL

**Q.** What about the IC50, pseudovirus neutralization [14] of the same binder?
**A.** 0.038 µg/mL

**Q.** What about the IC50, pseudovirus neutralization [15] of the same binder?
**A.** 7 ng/mL

**Q.** And the IC50, pseudovirus neutralization [16]?
**A.** 2 ng/mL

B2: NIH45-46^G54W(HC) S28Y(LC) (antibody, V domains shown)
VH: B1 VH
VL: B1 VL
**Q.** Which IC80 [17] does the source give for B2 here?
**A.** 0.14 µg/mL

**Q.** And the IC80 [18]?
**A.** 0.134 µg/mL

**Q.** What about the IC80 [19] of the same binder?
**A.** 0.622 µg/mL

**Q.** And the IC80 [20]?
**A.** 6 ng/mL

**Q.** And the IC80 [21]?
**A.** > 50 µg/mL

**Q.** And the IC80 [22]?
**A.** 0.086 µg/mL

**Q.** And the IC80 [23]?
**A.** 0.159 µg/mL

**Q.** What about the IC80 [24] of the same binder?
**A.** 38.9 µg/mL

**Q.** And the IC80 [25]?
**A.** 4 ng/mL

**Q.** And the IC80 [26]?
**A.** 0.484 µg/mL

**Q.** And the IC80 [27]?
**A.** > 50 µg/mL

**Q.** And the IC80 [28]?
**A.** 0.017 µg/mL

**Q.** What about the IC80 [29] of the same binder?
**A.** 0.084 µg/mL

**Q.** And the IC80 [30]?
**A.** 0.01 µg/mL

**Q.** And the IC80 [31]?
**A.** 0.211 µg/mL

**Q.** What about the IC80 [32] of the same binder?
**A.** 5.04 µg/mL

**Q.** And the IC80 [33]?
**A.** 0.133 µg/mL

**Q.** What about the IC80 [34] of the same binder?
**A.** 0.239 µg/mL

**Q.** What about the IC80 [35] of the same binder?
**A.** 0.083 µg/mL

**Q.** And the IC80 [36]?
**A.** 0.076 µg/mL

**Q.** What about the IC80 [37] of the same binder?
**A.** 0.042 µg/mL

**Q.** And the IC80 [38]?
**A.** 0.623 µg/mL

**Q.** And the IC80 [39]?
**A.** 0.05 µg/mL

**Q.** And the IC80 [40]?
**A.** 0.059 µg/mL

**Q.** What about the IC80 [41] of the same binder?
**A.** 0.151 µg/mL

**Q.** And the IC80 [42]?
**A.** 0.058 µg/mL

**Q.** And the IC80 [43]?
**A.** 0.047 µg/mL

**Q.** And the IC80 [44]?
**A.** 0.034 µg/mL

**Q.** And the IC80 [45]?
**A.** 0.308 µg/mL

**Q.** What about the IC80 [46] of the same binder?
**A.** 0.046 µg/mL

**Q.** What about the IC80 [47] of the same binder?
**A.** 0.028 µg/mL

**Q.** And the IC80 [48]?
**A.** > 50 µg/mL

**Q.** What about the IC80 [49] of the same binder?
**A.** 0.011 µg/mL

**Q.** What about the IC80 [50] of the same binder?
**A.** 0.042 µg/mL

**Q.** And the IC80 [51]?
**A.** 0.471 µg/mL

B3: NIH45-46^G54W (antibody, V domains shown)
VH: B1 VH
VL: B1 VL with Y28S
**Q.** What does the source list for B3?
**A.** IC50, pseudovirus neutralization [1]: 1 ng/mL; IC80 [17]: 2.45 µg/mL; IC80 [18]: 0.091 µg/mL; IC50, pseudovirus neutralization [2]: 1 ng/mL; IC80 [19]: 1.12 µg/mL; IC80 [20]: 4 ng/mL; IC80 [21]: > 50 µg/mL; IC80 [22]: 0.07 µg/mL; IC80 [23]: 0.25 µg/mL; IC80 [24]: 44.9 µg/mL; IC50, pseudovirus neutralization [3]: 0.019 µg/mL; IC50, pseudovirus neutralization [4]: 10 ng/mL; IC80 [25]: 3 ng/mL; IC80 [26]: 0.21 µg/mL; IC80 [27]: > 50 µg/mL; IC80 [28]: 0.025 µg/mL; IC80 [29]: 0.07 µg/mL; IC80 [30]: 0.013 µg/mL; IC50, pseudovirus neutralization [5]: 5 ng/mL; IC50, pseudovirus neutralization [6]: > 50 µg/mL; IC80 [31]: 0.135 µg/mL; IC80 [32]: 4.5 µg/mL; IC50, pseudovirus neutralization [7]: 0.021 µg/mL; IC50, pseudovirus neutralization [8]: 0.005 µg/mL; IC80 [33]: 0.187 µg/mL; IC80 [34]: 0.196 µg/mL; IC50, pseudovirus neutralization [9]: 10 ng/mL; IC50, pseudovirus neutralization [10]: 0.031 µg/mL; IC80 [35]: 0.11 µg/mL; IC80 [36]: 0.11 µg/mL; IC80 [37]: 0.01 µg/mL; IC80 [38]: 0.603 µg/mL; IC80 [39]: 0.03 µg/mL; IC80 [40]: 0.13 µg/mL; IC80 [41]: 0.089 µg/mL; IC50, pseudovirus neutralization [11]: 1 ng/mL; IC50, pseudovirus neutralization [12]: 0.015 µg/mL; IC80 [42]: 0.087 µg/mL; IC80 [43]: 0.16 µg/mL; IC50, pseudovirus neutralization [13]: 1 ng/mL; IC80 [44]: 2.6 µg/mL; IC50, pseudovirus neutralization [14]: 0.042 µg/mL; IC80 [45]: 0.239 µg/mL; IC50, pseudovirus neutralization [15]: 1 ng/mL; IC50, pseudovirus neutralization [16]: 1 ng/mL; IC80 [46]: 0.076 µg/mL; IC80 [47]: 0.052 µg/mL; IC80 [48]: > 50 µg/mL; IC80 [49]: 0.014 µg/mL; IC80 [50]: 0.05 µg/mL; IC80 [51]: 0.45 µg/mL
